The values that follow come from a protein production outcome set (Wang et al. 2014).

The nature of this series: label from the status in PepcDB records.

With “MSLKITKVEVIPISTPMKRAQLMRGATLARIDGVLLKLHSDEGLVGIADAGDTSSWYRGETQDSITSMICDFFAPKVLLGEDPTKIEKIVGRMDILTRDNNQAKATVDFALHDLVGKRFGVPVYQLLGGKTIERIPLGLVLGAGEPEAVAEEALAVLREGFHFVKLKAGGPLKADIAMVAEVRRAVGDDVDLFIDINGAWTYDQALTTIRALEKYNLSKIEQPLPAWDLDGMARLRGKVATPIYADESAQELHDLLAIINKGAADGLMIKTQKAGGLLKAQRWLTLARLANLPVICGCMVGSGLEASPAAHLLAANDWIAQFPQENAGPLHIHDCLNSRDIDNDIALNVPRFEGGYLYPNDGPGLGIELNEDLVRRLVTPGKAARVVTAEGHHHHHH”, the protein production result was “not failed”.
To “MSLKITRIDIHRTDLPVRGGVYRLSGGREYHSYDATIVSIETDTGLTGWGESTPFGSTYIAAHAGGTRAALELLAPAILGMDPRQHDRIWDRMRDTLKGHRDARAALDIACWDIAAQAAGLPLCDMTGGRVAGPVPVISSIGGDTPEAMRAKVARHRAQGFKGHSIKIGASEAEGGPALDAERITACLADRQPGEWYLADANNGLTVEHALRMLSLLPPGLDIVLEAPCASWAETKSLRARCALPLLLDELIQTETDLIAAIRDDLCDGVGLKVSKQGGITPMLRQRAIAAAAGMVMSVQDTVGSQISFAAILHLAQSTPRHLLRCALDTRAMTTAELAEIDAPLRDGGASAPSDPGLGLRVNRDALGTPVKTFGDPIEGHHHHHH” belongs “not failed”.
To “MSLKKVLLCVGNELRGDDGVAIALGRLVEEQMPEWSVFFGYDTPESEFGKLRELAPDVIVVADAMSGFKEGEIEFLDLSDERTYLYSTHNLPTPILISYLRGICSKTIFLGISVLLENVLHFSEGLSQGASDSAFVALGRIKELDGMLKEGHHHHHH” belongs “not failed”; to “MSLKKVVIIGGGAAGMSAASRVKRLKPEWDVKVFEATEWVSHAPCGIPYVVEGLSTPDKLMYYPPEVFIKKRGIDLHLNAEVIEVDTGYVRVRENGGEKSYEWDYLVFANGASPQVPAIEGVNLKGVFTADLPPDALAIREYMEKYKVENVVIIGGGYIGIEMAEAFAAQGKNVTMIVRGERVLRRSFDKEVTDILEEKLKKHVNLRLQEITMKIEGEERVEKVVTDAGEYKAELVILATGIKPNIELAKQLGVRIGETGAIWTNEKMQTSVENVYAAGDVAETRHVITGRRVWVPLAPAGNKMGYVAGSNIAGKELHFPGVLGTAVTKFMDVEIGKTGLTEMEALKEGYDVRTAFIKASTRPHYYPGGREIWLKGVVDNETNRLLGVQVVGSDILPRIDTAAAMLMAGFTTKDAFFTDLAYAPPFAPVWDPLIVLARVLKEGHHHHHH”, “not failed”.
To “MSLKNSSRSAVDPFIVMDVMEAARRAEEAGRRIIHMEVGQPGTGAPRGAVEALAKSLETDALGYTVALGLPALRQRIARLYGEWYGVDLDPGRVVITPGSSGGFLLAFTALFDSGDRVGIGAPGYPSYRQILRALGLVPVDLPTAPENRLQPVPADFAGLDLAGLMVASPANPTGTMLDHAAMGALIEAAQAQGASFISDEIYHGIEYEAKAVTALELTDECYVINSFSKYFSMTGWRVGWMVVPEDQVRVVERIAQNMFICAPHASQVAALAALDCDAELQANLDVYKANRKLMLERLPKAGFTRIAPPDGAFYVYADVSDLTDDSRAFAAEILEKAGVAVTPGLDFDPERGAGTLRFSYARATADIEEGLDRLEAFMQARGEGHHHHHH” belongs “not failed”; to “MSLKQKILIVEDSMTIRRMLIQAIAQQTGLEIDAFDTLEGARHCQGDEYVVALVDLTLPDAPSGEAVKVLLERGLPVVILTADISEDKREAWLEAGVLDYVMKDSRHSLQYAVGLVHRLYLNQQIEVLVVDDSRTSRHRTMAQLRKQLLQVHEASHAREALATLEQHPAIRLVLVDYYMPEIDGISLVRMLRERYSKQQLAIIGISVSDKRGLSARYLKQGANDFLNQPFEPEELQCRVSHNLEALEQFNSEGHHHHHH”, “not failed”; to “MSLKQQFSTKAFQAANLEAYKAQMKEMEESFGALLRQLPSDTEVPGLLEDITRTGLGSGLEFEEIKLLPEVAQQFYIELPIQISVVGGYHDLATFVSGVSSLPRIVTLHDFEIKPVAPGSTSKLRMSILAKTYRYNDKGEGHHHHHH”, “not failed”.
For the sequence “MSLKTYKGYLIDLDGTMYNGTEKIEEACEFVRTLKDRGVPYLFVTNNSSRTPKQVADKLVSFDIPATEEQVFTTSMATAQHIAQQKKDASVYVIGEEGIRQAIEENGLTFGGENADFVVVGIDRSITYEKFAVGCLAIRNGARFISTNGDIAIPTERGLLPGNGSLTSVLTVSTGVQPVFIGKPESIIMEQAMRVLGTDVSETLMVGDNYATDIMAGINAGMDTLLVHTGVTKREHMTDDMEKPTHAIDSLTEWIPYIEGHHHHHH”, the protein production result is recorded as “not failed”.
For the sequence “MSLKYQLRFGGEGGQGVITAGEILAEAAIKEGRQAFKASTYTSQVRGGPTKVDIIIDDKEILFPYAVEGEVDFMLSTADKGYKGFRGGVKEGGIIVVEPNLVHPESEDYKKWQIFEIPIITIAKDEVGNVATQSVVALAIAAYMSKCIDLDVLKETMLHMVPAKTRDANAKAFDLGVKYATQAKPHEGHHHHHH”, the protein production result was “not failed”.
“MSLLERLNQDMKLYMKNREKDKLTVVRMVKASLQNEAIKLKKDSLTEDEELTVLSRELKQRKDSLQEFSNANRLDLVDKVQKELDILEVYLPEQLSEEELRTIVNETIAEVGASSKADMGKVMGAIMPKVKGKADGSLINKLVSSQLS”: the protein production entry is “not failed”.
To “MSLLLTNHIGYERLGPKKAIIQTEQPHLSSYTAQLICATSEQTVATFAVEEQGKVANWHQGYFYLIDFSSFTDSGDYFLQVEDSRSSSFTVGEHILLEQTLSDVIHYFKSQRCGGVFDQQDRQVPVLNANQTADVHGGWYDASGDVSKYLSHLSYANYLNPQQTPMVVWNILKGLSLLEGSEDIAAFTRTRLIEEALFGADFLVRMQNEKGFFYMTVFDKWSKDTAQREICAYETQLGHKFDDYQAGFRQGGGVAIAALAAASRLGVHGEYDQQKYRNAAENGYWHLKEHNTQYLNDGEENIIDEYCALLASVELFKATKETRYLEESRLWAQRLVARQMSDEQIQHFWSANQDGSRPYFHAAEAGLPVIALCEYLAIEDDSVQTESVKRIVNRACEFEIKISNKVTNPFGYPRQYVKGVNESKRDAFFVAHNNESGYWWQGENARLGSLATMAYLAQPHIASQEIQQQLSVFAQDALNWIVGLNPYDMCMLDGHGRNNPDYLPQYGFFNAKGGVCNGITGGFEDEEDIAFNPPAQKDDMLQNWRWGEQWIPHGAWYLLAIMSQAQHISQLATSKNIKEGHHHHHH” belongs “not failed”.
Regarding “MSLNGKLDFSNRQARILYNKAIAKALFGLDIEYHPKGLVTTPISRYIFLKTFLRGGEVALEIGTGHTAMMALMAEKFFNCKVTATEVDEEFFEYARRNIERNNSNVRLVKSNGGIIKGVVEGTFDVIFSAPPYYDKPLGRVLTEREAIGGGKYGEEFSVKLLEEAFDHLNPGGKVALYLPDKEKLLNVIKERGIKLGYSVKDIKFKVGTRWRHSLIFFKGISEGHHHHHH”, the protein production result was “not failed”.
On to “MSLNHHPIIYLVDHQKDARAALSKLLSPLDVTIQCFASAESFMRQQISDDAIGMIIEAHLEDKKDSGIELLETLVKRGFHLPTIVMASSSDIPTAVRAMRASAADFIEKPFIEHVLVHDVQQIINGAKEGHHHHHH”, for which the protein production result is listed as “not failed”.
As for “MSLQRVTNCIVVDHDQVLLLQKPRRGWWVAPGGKMEAGESILETVKREYWEETGITVKNPELKGIFSMVIFDEGKIVSEWMLFTFKATEHEGEMLKQSPEGKLEWKKKDEVLELPMAAGDKWIFKHVLHSDRLLYGTFHYTPDFELLSYRLDPEPQMKKKGIITITTDPNSSSVDKLAAALEHHHHHH”, the protein production result is listed as “not failed”.
To “MSLQTKILIIDGDKDNCQKLKGFLEEKGISIDLAYNCEEAIGKIFSNKYDLIFLEIILSDGDGWTLCKKIRNVTTCPIVYMTYINEDQSILNALNSGGDDYLIKPLNLEILYAKVKAILRRMNSYVNNEGHHHHHH” belongs “not failed”; to “MSLRAKLIWPILVFITAIFVASKGYTSYTAYQSSKHELVEQTRKLINNVSYSIKDALTTKNKRKAQTILADLIEQPNVSRVKLYDRANELFVLLEGSGESAPVPNQNERSKLDALGYALSAKFLYVLEPIIHEGHVIGSIRVTLSYIPIINAQHSFLKDAGVLLLILAAGGIIFYITIDRIILRPLLDLNGAIQDVTFGNASHVQIRHHSKDELGEVIHAFNRMMTKLRKREKQRQHSLATLEQKRAFSEEVIESIQYALVITDNLGTIIHSNAATQHIFQKTPEALENANIRDLIKTKMPNELSQILSRCLECDDIHLQNIDNEQQLSLTTRRLSNHGYLLFAIQDITEIEEAMNRQRVAGRVFEASQDGLIVLNHKGVITMVNPAVTKLVGLEIDQLVGQSFIQTIRWRKLQEMMPSIIESIENYGVWQGEVIEQNHLGLLVPMFARVNRIVKCENNGFYDLVIILTDLSNAKEMERLEYLAHHDALTGLANRSKFHLELEDLVQRSGYQRDEFAVLYLDLDGFKEINDTYGHDAGDEVLKRVADRLTSATRHSDLIARLSGDEFVMLVNPANQKVVTRIAEQLLESICAPIEYKGNELKVGVSIGVKLVGVNERDATRILKSADTAMYQAKKAGKGQAILMGCELQETV”, “failed”; to “MSLRIDPLGGESLKNQEVKGKKSGKTSRVGESKKKEFFDILEDVKEDHFEKLLEEAVEEVIDSGNELVRSPTPSNLKRYKNAIKEFLKLIEKKIYKLAGSFDMNSGRARLHLVVEEVNEKLMDLTEKIMKNEWQTINLAARIEEINGLILNLYREGHHHHHH”, “not failed”.
To “MSLRQDILLNNNWNFRFSHQVQGDTRRVDLPHTWNAQDALAGKIDYKRGIGNYEKALYIRPEWKGKRLFLRFDGVNSIADVFINRKHIGEHRGGYGAFIFEITDLVKYGEKNSVLVRANNGEQLDIMPLVGDFNFYGGIYRDVHLLITDETCISPLDYASPGVYLVQEVVSPQEAKVCAKVNLSNRAADGTAELQVLVTDGTKVICKESRNVSLKQGADILEQLPLLIQKPRLWNGCEDPFMYQVSISLHKDGKQIDSVTQPLGLRYYHTDPDKGFFLNGKHLPLHGVCRHQDRAEVGNALRPQHHEEDVALMREMGVNAIRLAHYPQATYMYDLMDKHGIVTWAEIPFVGPGGYADKGFVDQASFRENGKQQLIELIRQHYNHPSICFWGLFNELKEVGDNPVEYVKELNALAKQEDPTRPTTSASNQDGNLNFITENIAWNRYDGWYGSTPKTLATFLDRTHKKHPELRIGISEYGAGASIYHQQDSLKQPSASGWWHPENWQTYYHMENWKIIAERPFVWGTFVWNMFDFGAAHRTEGDRPGINDKGLVTFDRKVRKDAFYFYKANWNKQEPMIYLAEKRCRLRYQPEQTFMAFTTAPEAELFVNGVSCGKQKADTYSTVVWKNVKLTSGENIIRVTTPGKKPLTDEVTVEYKEDREGHHHHHH” belongs “not failed”; to “MSLSKTFLNELANQALTNPNDFTKGEKKQESFLLEYVSANPTGPLHIGHARGAVFGDTLTRLARHLGYKFNTEYYVNDAGNQIYLLGLSILLSVKESILHENVEYPEQYYKGEYIVDLAKEAFEKFGKEFFSEENIPSLADWAKDKMLVLIKQNLEQAKIKIDSYVSERSYYDALNATLESLKEHKGIYEQEGKIWLASSQKGDEKDRVIIREDGRGTYLAADIVYHKDKMSRGYGKCINIWGADHHGYIPRMKAAMEFLGFDSNNLEIILAQMVSLLKDGEPYKMSKRAGNFILMSDVVDEIGSDALRYIFLSKKCDTHLEFDISDLQKEDSSNPVYYINYAHARIHQVFAKAGKKIDDVMKADLQSLNQDGVNLLFEALNLKAVLNDAFEARALQKIPDYLKNLAANFHKFYNENKVVGSANENDLLKLFSLVALSIKTAFSLMGIEAKNKMEHEGHHHHHH”, “not failed”.
